# Source: patent US20220323445A1, “REDUCING IMMUNOGENICITY TO PEGLOTICASE” (Horizon Therapeutics Ireland DAC, priority 2020, published 2022)
# Where “and” joins values, the source holds several entries; their conditions need not be identical. Equal values may be shown once.
# B1: pegloticase (protein)
# chain: TYKKNDEVEFVRTGYGKDMIKVLHIQRDGKYHSIKEVATTVQLTLSSKKDYLHGDNSDVIPTDTIKNTVNVLAKFKGIKSIETFAVTICEHFLSSFKHVIRAQVYVEEVPWKRFEKNGVKHVHAFIYTPTGTHFCEVEQIRNGPPVIHSGIKDLKVLKTTQSGFEGFIKDQFTTLPEVKDRCFATQVYCKWRYHQGRDVDFEATWDTVRSIVLQKFAGPYDKGEYSPSVQKTLYDIQVLTLGQVPEIEDMEISLPNIHYLNIDMSKMGLINKEEVLLPLDNPYGKITGTVKRKLSSRL
# modifications: monomethoxy PEG conjugated; Krystexxa Sequence
# notes: covalent conjugate of uricase produced by a genetically modified strain of Escherichia coli and monomethoxypoly (ethylene glycol)
# Assays:
# [1] = test system: patients with uncontrolled gout; test: Tender joint count (68-point) and swollen joint count (66-point), open-label study; type: in vivo, human; settings: mITT
# Method: Tender and Swollen Joint Counts: Tender and swollen (excludes hip) joint counts were recorded at the Week −4 or week −6 (prior to the first dose of MTX) Visit during the MTX Run-in Period for the open-label and randomized studies, respectively; prior to pegloticase infusion at the Day 1 and Weeks 14, 24 and 36 Visits, or at the Day 1 and weeks 6, 14, 20, 24, 30, 36, and 44 visits during the Pegloticase+IMM Period for the open-label and randomized studies, respectively; and at the End of Pegloticase Infusions Visit (if applicable) and the Week 52/End of Study/Early Termination Visit and the Post Treatment 3 and 6 month Follow-up visits. Tender and swollen joint counts were assessed by physical examination.
# [2] = Stability of pegloticase diluted in infusion bags; type: physicochemical; settings: at 2° C. to 8° C. and at room temperature (20° C. to 25° C.); 0.45% or 0.9% Sodium Chloride
# Method: Preparation—Vials were visually inspected for particulate matter and discoloration before administration, whenever solution and container permit. Vials were not used if either was present. Using appropriate aseptic technique, 1 mL of pegloticase was withdrawn from the vial into a sterile syringe. Any unused portion of product remaining in the vial was discarded. Syringe contents were injected into a single 250 mL bag of 0.45% or 0.9% Sodium Chloride Injection, United States Pharmacopeia (USP) for IV infusion and was not mixed or diluted with other drugs. The infusion bag containing the dilute pegloticase solution was inverted several times, but not shaken, to ensure thorough mixing.
# Pegloticase diluted in infusion bags was stable for 4 hours at 2° C. to 8° C. (36° F. to 46° F.) and at room temperature (20° C. to 25° C., 68° F. to 77° F.); however, the diluted solution was stored under refrigeration, not frozen, protected from light, and used within 4 hours of dilution. Before administration, the diluted solution of pegloticase was allowed to reach room temperature. Pegloticase in a vial or IV infusion fluid was never subjected to artificial heating.
# serum uric acid (sUA) = settings: cited from earlier work
# plasma urate = settings: doses of 4 to 12 mg; within 24 to 72 hours; from 11.1±0.6 mg/dL; cited from earlier work
# [3] = Day 1 vs Methotrexate Baseline, n=14
# [4] = Early Termination Visit vs Methotrexate Baseline, n=3
# [5] = Early Termination Visit vs Pegloticase Baseline, n=3
# [6] = End of Pegloticase Infusions Visit vs Methotrexate Baseline, n=2
# [7] = End of Pegloticase Infusions Visit vs Pegloticase Baseline, n=2
# [8] = End of Pegloticase Infusions Visit, n=2
# [9] = Week 14 vs Methotrexate Baseline, n=14
# [10] = Week 14 vs Pegloticase Baseline, n=14
# [11] = Week 24 vs Methotrexate Baseline, n=11
# [12] = Week 24 vs Pegloticase Baseline, n=11
# [13] = Week 36 vs Methotrexate Baseline, n=9
# [14] = Week 36 vs Pegloticase Baseline, n=9
# [15] = Week 52/ET vs Methotrexate Baseline, n=3
# [16] = Week 52/ET vs Pegloticase Baseline, n=3
molecule,measurement,setting,value
B1,"Swollen Joint Count, Observed, Mean (SD)","[1]; Day 1, n=14",5.3 (6.94)
same,"Swollen Joint Count, Observed, Median","[1]; Day 1, n=14",3.5
same,"Tender Joint Count, Observed, Mean (SD)","[1]; Day 1, n=14",9.6 (11.03)
same,"Tender Joint Count, Observed, Median","[1]; Day 1, n=14",7.0
same,"Swollen Joint Count, Change from Baseline, Mean (SD)",[1]; [3],−0.7 (5.21)
same,"Swollen Joint Count, Change from Baseline, Median",[1]; [3],0.5
same,"Tender Joint Count, Change from Baseline, Mean (SD)",[1]; [3],−1.9 (9.75)
same,"Tender Joint Count, Change from Baseline, Median",[1]; [3],0.0
same,"Swollen Joint Count, Change from Baseline, Mean (SD)",[1]; [4],−1.0 (1.73)
same,"Swollen Joint Count, Change from Baseline, Median",[1]; [4],0.0
same,"Tender Joint Count, Change from Baseline, Mean (SD)",[1]; [4],0.7 (5.13)
same,"Tender Joint Count, Change from Baseline, Median",[1]; [4],2.0
same,"Swollen Joint Count, Change from Baseline, Mean (SD)",[1]; [5],−3.3 (3.06)
same,"Swollen Joint Count, Change from Baseline, Median",[1]; [5],−4.0
same,"Tender Joint Count, Change from Baseline, Mean (SD)",[1]; [5],−2.7 (4.16)
same,"Tender Joint Count, Change from Baseline, Median",[1]; [5],−4.0
same,"Swollen Joint Count, Observed, Mean (SD)","[1]; Early Termination Visit, n=3",0.7 (0.58)
same,"Swollen Joint Count, Observed, Median","[1]; Early Termination Visit, n=3",1.0
same,"Tender Joint Count, Observed, Mean (SD)","[1]; Early Termination Visit, n=3",7.7 (8.96)
same,"Tender Joint Count, Observed, Median","[1]; Early Termination Visit, n=3",3.0
same,"Swollen Joint Count, Change from Baseline, Mean (SD)",[1]; [6],−7.0 (4.24)
same,"Swollen Joint Count, Change from Baseline, Median",[1]; [6],−7.0
same,"Tender Joint Count, Change from Baseline, Mean (SD)",[1]; [6],−12.0 (7.07)
same,"Tender Joint Count, Change from Baseline, Median",[1]; [6],−12.0
same,"Swollen Joint Count, Change from Baseline, Mean (SD)",[1]; [7],−2.0 (2.83)
same,"Swollen Joint Count, Change from Baseline, Median",[1]; [7],−2.0
same,"Tender Joint Count, Change from Baseline, Mean (SD)",[1]; [7],−3.0 (5.66)
same,"Tender Joint Count, Change from Baseline, Median",[1]; [7],−3.0
same,"Swollen Joint Count, Observed, Mean (SD)",[1]; [8],0.0 (0.00)
same,"Swollen Joint Count, Observed, Median",[1]; [8],0.0
same,"Tender Joint Count, Observed, Mean (SD)",[1]; [8],2.0 (2.83)
same,"Tender Joint Count, Observed, Median",[1]; [8],2.0
same,"Swollen Joint Count, Observed, Mean (SD)","[1]; Week 14, n=14",1.7 (3.73)
same,"Swollen Joint Count, Observed, Median","[1]; Week 14, n=14",0.0
same,"Tender Joint Count, Observed, Mean (SD)","[1]; Week 14, n=14",4.6 (6.16)
same,"Tender Joint Count, Observed, Median","[1]; Week 14, n=14",2.0
same,"Swollen Joint Count, Change from Baseline, Mean (SD)",[1]; [9],−4.3 (7.38)
same,"Swollen Joint Count, Change from Baseline, Median",[1]; [9],−2.0
same,"Tender Joint Count, Change from Baseline, Mean (SD)",[1]; [9],−7.0 (14.20)
same,"Tender Joint Count, Change from Baseline, Median",[1]; [9],0.0
same,"Swollen Joint Count, Change from Baseline, Mean (SD)",[1]; [10],−3.6 (7.04)
same,"Swollen Joint Count, Change from Baseline, Median",[1]; [10],−2.5
same,"Tender Joint Count, Change from Baseline, Mean (SD)",[1]; [10],−5.1 (8.12)
same,"Tender Joint Count, Change from Baseline, Median",[1]; [10],−5.0
same,"Swollen Joint Count, Observed, Mean (SD)","[1]; Week 24, n=11",0.5 (1.21)
same,"Swollen Joint Count, Observed, Median","[1]; Week 24, n=11",0.0
same,"Tender Joint Count, Observed, Mean (SD)","[1]; Week 24, n=11",2.6 (3.88)
same,"Tender Joint Count, Observed, Median","[1]; Week 24, n=11",0.0
same,"Swollen Joint Count, Change from Baseline, Mean (SD)",[1]; [11],−6.6 (9.03)
same,"Swollen Joint Count, Change from Baseline, Median",[1]; [11],−3.0
same,"Tender Joint Count, Change from Baseline, Mean (SD)",[1]; [11],−10.2 (14.27)
same,"Tender Joint Count, Change from Baseline, Median",[1]; [11],−4.0
same,"Swollen Joint Count, Change from Baseline, Mean (SD)",[1]; [12],−5.1 (6.66)
same,"Swollen Joint Count, Change from Baseline, Median",[1]; [12],−3.0
same,"Tender Joint Count, Change from Baseline, Mean (SD)",[1]; [12],−6.8 (8.16)
same,"Tender Joint Count, Change from Baseline, Median",[1]; [12],−4.0
same,"Swollen Joint Count, Observed, Mean (SD)","[1]; Week 36, n=9",0.1 (0.33)
same,"Swollen Joint Count, Observed, Median","[1]; Week 36, n=9",0.0
same,"Tender Joint Count, Observed, Mean (SD)","[1]; Week 36, n=9",2.1 (4.54)
same,"Tender Joint Count, Observed, Median","[1]; Week 36, n=9",0.0
same,"Swollen Joint Count, Change from Baseline, Mean (SD)",[1]; [13],−7.8 (10.81)
same,"Swollen Joint Count, Change from Baseline, Median",[1]; [13],−3.0
same,"Tender Joint Count, Change from Baseline, Mean (SD)",[1]; [13],−12.3 (14.56)
same,"Tender Joint Count, Change from Baseline, Median",[1]; [13],−7.0
same,"Swollen Joint Count, Change from Baseline, Mean (SD)",[1]; [14],−6.2 (8.15)
same,"Swollen Joint Count, Change from Baseline, Median",[1]; [14],−4.0
same,"Tender Joint Count, Change from Baseline, Mean (SD)",[1]; [14],−7.8 (8.94)
same,"Tender Joint Count, Change from Baseline, Median",[1]; [14],−4.0
same,"Swollen Joint Count, Change from Baseline, Mean (SD)",[1]; [15],−21.0 (9.64)
same,"Swollen Joint Count, Change from Baseline, Median",[1]; [15],−25.0
same,"Tender Joint Count, Change from Baseline, Mean (SD)",[1]; [15],−24.0 (21.38)
same,"Tender Joint Count, Change from Baseline, Median",[1]; [15],−17.0
same,"Swollen Joint Count, Change from Baseline, Mean (SD)",[1]; [16],−13.0 (13.00)
same,"Swollen Joint Count, Change from Baseline, Median",[1]; [16],−13.0
same,"Tender Joint Count, Change from Baseline, Mean (SD)",[1]; [16],−16.0 (17.52)
same,"Tender Joint Count, Change from Baseline, Median",[1]; [16],−15.0
same,"Swollen Joint Count, Observed, Mean (SD)","[1]; Week 52/ET, n=3",0.0 (0.00)
same,"Swollen Joint Count, Observed, Median","[1]; Week 52/ET, n=3",0.0
same,"Tender Joint Count, Observed, Mean (SD)","[1]; Week 52/ET, n=3",5.3 (3.21)
same,"Tender Joint Count, Observed, Median","[1]; Week 52/ET, n=3",4.0
same,stability of pegloticase diluted in infusion bags,[2],4 h
same,response rate (proportion of responders) during Month 6 in phase 3 studies,"serum uric acid (sUA); pegloticase 8 mg every 2 weeks, without MTX",43% and 43.5%
same,"proportion of patients maintaining therapeutic response at 6 months, previously reported",serum uric acid (sUA); pegloticase alone,42%
same,"plasma urate concentration (pUAc) after dosing, mean±SD",plasma urate,1.0±0.5 mg/dL
